The values below come from paper PMC6946549 (Biochemistry, 2019).

B1: ChsH2 (chain beta of the ChsH1-ChsH2-Ltp2 complex) (enzyme)
chain: MTGVSDIQEAVAQIKAAGPSKPRLARDPVNQPMINNWVEAIGDRNPIYVDDAAARAAGHPGIVAPPAMIQVWTMMGLGGVRPKDDPLGPIIKLFDDAGYIGVVATNCEQTYHRYLLPGEQVSISAELGDVVGPKQTALGEGWFINQHIVWQVGDEDVAEMNWRILKFKPAGSPSSVPDDLDPDAMMRPSSSRDTAFFWDGVKAHELRIQRLADGSLRHPPVPAVWQDKSVPINYVVSSGRGTVFSFVVHHAPKVPGRTVPFVIALVELEEGVRMLGELRGADPARVAIGMPVRATYIDFPDWSLYAWEPDE
B2: Ltp2 (17-hydroxy-3-oxo-4-pregnene-20-carboxyl-CoA retro-aldolase; chain gamma of the ChsH1-ChsH2-Ltp2 complex) (enzyme)
chain: MLSGQAAIVGIGATDFSKNSGRSELRLAAEAVLDALADAGLSPTDVDGLTTFTMDTNTEIAVARAAGIGELTFFSKIHYGGGAACATVQHAAMAVATGVADVVVAYRAFNERSGMRFGQVQTRLTENADSTGVDNSFSYPHGLSTPAAQVAMIARRYMHLSGATSRDFGAVSVADRKHAANNPKAYFYGKPITIEDHQNSRWIAEPLRLLDCCQETDGAVAIVVTSAARARDLKQRPVVIEAAAQGCSPDQYTMVSYYRPELDGLPEMGLVGRQLWAQSGLTPADVQTAVLYDHFTPFTLIQLEELGFCGKGEAKDFIADGAIEVGGRLPINTHGGQLGEAYIHGMNGIAEGVRQLRGTSVNPVAGVEHVLVTAGTGVPTSGLILG

In data set [1] the target is B2. Kind of data set: SAXS.
Data set [2] deals with the molecule itself. Kind of data set: negative-stain EM.

For B1, the binding result in data set [1] was “binds”. As to B2, the binding result in data set [2] is given as “binds”.
